Source: article doi:10.1101/2025.04.09.647960

Biological target: WT myostimulin (human C1orf54, residues 17-131) (human) (UniProt Q8WWF1)
Test: RP-HPLC-MS

Q: Which stoichiometry N does the source give for “WT myostimulin (human C1orf54, residues 17-131) (from UniProt Q8WWF1 17-131) (natural protein)” here?
A: The stoichiometry N was 2.
